Laboratory results as given in PMC7954794, “Protein context shapes the specificity of SH3 domain-mediated interactions in vivo” (Nature Communications, 2021).

Tested on: ABP1
Test: DHFR-PCA on solid medium, bait ABP1 (Fig. 1B)
Format: cell-based, Saccharomyces cerevisiae
Conditions: bait ABP1, label = prey; for medrep (log2 median colony size normalized to plate background, PCA score): 2-4 replicates; for Ratio (SH3-deleted/WT medrep): only significant differences showed, PPIs completely lost have a ratio of 0.1 and the gained PPIs 2.5
Text: Supplement 41467_2021_21873_MOESM8_ESM.xlsx, sheet "Fig1B" | column: medsize; medrep; Ratio; Score

B1: YGR178C (protein, UniProt P53297 1-722, looked up)
PAB1-binding protein 1: MKGNFRKRDSSTNSRKGGNSDSNYTNGGVPNQNNSSMFYENPEITRNFDDRQDYLLANSIGSDVTVTVTSGVKYTGLLVSCNLESTNGIDVVLRFPRVADSGVSDSVDDLAKTLGETLLIHGEDVAELELKNIDLSLDEKWENSKAQETTPARTNIEKERVNGESNEVTKFRTDVDISGSGREIKERKLEKWTPEEGAEHFDINKGKALEDDSASWDQFAVNEKKFGVKSTFDEHLYTTKINKDDPNYSKRLQEAERIAKEIESQGTSGNIHIAEDRGIIIDDSGLDEEDLYSGVDRRGDELLAALKSNSKPNSNKGNRYVPPTLRQQPHHMDPAIISSSNSNKNENAVSTDTSTPAAAGAPEGKPPQKTSKNKKSLSSKEAQIEELKKFSEKFKVPYDIPKDMLEVLKRSSSTLKSNSSLPPKPISKTPSAKTVSPTTQISAGKSESRRSGSNISQGQSSTGHTTRSSTSLRRRNHGSFFGAKNPHTNDAKRVLFGKSFNMFIKSKEAHDEKKKGDDASENMEPFFIEKPYFTAPTWLNTIEESYKTFFPDEDTAIQEAQTRFQQRQLNSMGNAVPGMNPAMGMNMGGMMGFPMGGPSASPNPMMNGFAAGSMGMYMPFQPQPMFYHPSMPQMMPVMGSNGAEEGGGNISPHVPAGFMAAGPGAPMGAFGYPGGIPFQGMMGSGPSGMPANGSAMHSHGHSRNYHQTSHHGHHNSSTSGHK
medrep (log2 median colony size normalized to plate background, PCA score): 1.414
Ratio (SH3-deleted/WT medrep): 2.5

B2: YOR284W (protein, UniProt Q12134 1-243, looked up)
Protein HUA2: MQQTKFGKMYLDHDSVVEYSEDEIVEADRITLGYKKRLSMIENQMRHLLEDFSLDVQQIEPILADLQKYYDAFLQLLQKRNKSLQCKRSTHQPVPSPMNSQTSTNAKVNLSGKLMKFQLNSVQKFDEENILRILQNKIEFEHYFQIDKGKKQKVLLLAVYQCLNGPTRLHKVLNIEGIIHNNSIRTILGKQVSSSKWTVFLYDVKLVLLAHRQDVPNLETSKMIVRYGDLFPCALYFKDHTAY
medrep (log2 median colony size normalized to plate background, PCA score): 3.262
Ratio (SH3-deleted/WT medrep): 0.1

B3: YAR042W (protein, UniProt P35845 1-1188, looked up)
Oxysterol-binding protein …: MEQPDLSSVAISKPLLKLKLLDALRQGSFPNLQDLLKKQFQPLDDPNVQQVLHLMLHYAVQVAPMAVIKEIVHHWVSTTNTTFLNIHLDLNERDSNGNTPLHIAAYQSRGDIVAFLLDQPTINDCVLNNSHLQAIEMCKNLNIAQMMQVKRSTYVAETAQEFRTAFNNRDFGHLESILSSPRNAELLDINGMDPETGDTVLHEFVKKRDVIMCRWLLEHGADPFKRDRKGKLPIELVRKVNENDTATNTKIAIDIELKKLLERATREQSVIDVTNNNLHEAPTYKGYLKKWTNFAQGYKLRWFILSSDGKLSYYIDQADTKNACRGSLNMSSCSLHLDSSEKLKFEIIGGNNGVIRWHLKGNHPIETNRWVWAIQGAIRYAKDREILLHNGPYSPSLALSHGLSSKVSNKENLHATSKRLTKSPHLSKSTLTQNDHDNDDDSTNNNNNKSNNDYDDNNNNNNNDDDDYDDDDESRPLIEPLPLISSRSQSLSEITPGPHSRKSTVSSTRAADIPSDDEGYSEDDSDDDGNSSYTMENGGENDGDEDLNAIYGPYIQKLHMLQRSISIELASLNELLQDKQQHDEYWNTVNTSIETVSEFFDKLNRLTSQREKRMIAQMTKQRDVNNVWIQSVKDLEMELVDKDEKLVALDKERKNLKKMLQKKLNNQPQVETEANEESDDANSMIKGSQESTNTLEEIVKFIEATKESDEDSDADEFFDAEEAASDKKANDSEDLTTNKETPANAKPQEEAPEDESLIVISSPQVEKKNQLLKEGSFVGYEDPVRTKLALDEDNRPKIGLWSVLKSMVGQDLTKLTLPVSFNEPTSLLQRVSEDIEYSHILDQAATFEDSSLRMLYVAAFTASMYASTTNRVSKPFNPLLGETFEYARTDGQYRFFTEQVSHHPPISATWTESPKWDFYGECNVDSSFNGRTFAVQHLGLWYITIRPDHNISVPEETYSWKKPNNTVIGILMGKPQVDNSGDVKVTNHTTGDYCMLHYKAHGWTSAGAYEVRGEVFNKDDKKLWVLGGHWNDSIYGKKVTARGGELTLDRIKTANSATGGPKLDGSKFLIWKANERPSVPFNLTSFALTLNALPPHLIPYLAPTDSRLRPDQRAMENGEYDKAAAEKHRVEVKQRAAKKEREQKGEEYRPKWFVQEEHPVTKSLYWKFNGEYWNKRKNHDFKDCADIF
medrep (log2 median colony size normalized to plate background, PCA score): 1.62
Ratio (SH3-deleted/WT medrep): 2.5

B4: YDL160C (protein, UniProt P39517 1-506, looked up)
ATP-dependent RNA helicase …: MGSINNNFNTNNNSNTDLDRDWKTALNIPKKDTRPQTDDVLNTKGNTFEDFYLKRELLMGIFEAGFEKPSPIQEEAIPVAITGRDILARAKNGTGKTAAFVIPTLEKVKPKLNKIQALIMVPTRELALQTSQVVRTLGKHCGISCMVTTGGTNLRDDILRLNETVHILVGTPGRVLDLASRKVADLSDCSLFIMDEADKMLSRDFKTIIEQILSFLPPTHQSLLFSATFPLTVKEFMVKHLHKPYEINLMEELTLKGITQYYAFVEERQKLHCLNTLFSKLQINQAIIFCNSTNRVELLAKKITDLGYSCYYSHARMKQQERNKVFHEFRQGKVRTLVCSDLLTRGIDIQAVNVVINFDFPKTAETYLHRIGRSGRFGHLGLAINLINWNDRFNLYKIEQELGTEIAAIPATIDKSLYVAENDETVPVPFPIEQQSYHQQAIPQQQLPSQQQFAIPPQQHHPQFMVPPSHQQQQAYPPPQMPSQQGYPPQQEHFMAMPPGQSQPQY
medrep (log2 median colony size normalized to plate background, PCA score): 1.807
Ratio (SH3-deleted/WT medrep): 2.5

B5: YNL287W (protein, UniProt P32074 1-935, looked up)
Coatomer subunit gamma: MSAHTYKKFENSTSGDLPDKMTIYQDCMNTFNESPVNSKRCRLLISRLLRLLAQGETFPQNEATALFFSISKLFQHQNDPLRQAVYLAIKELSGISEDVLMATSSIMKDVQNGSDLIKPDAIRSLTYVLDESTAFSAERLLKSAVVSRHPSISSAALCTSYHLLPISEVTIRRFTNETQEAVLDLKQFPNQHGNSEYYPNSTYISQYHALGLLYQLKKTDKMALLKLVRHFSENNSMKNQLAKVELVKIVNDLIYRDPQLFSQFRPLLSDWLSNKFESVQLETAKLITSFATRNSRLVAPELYAAAISALQSLLTVPRVSSRFAALRILNRISMVSPEKIVVCNPELESLINDSNRNISTYAITTLLKTGTSKNISSLISTITNFIHDVSDDFKIIIIDAVRTLSLNFPQEWKSILNFLIDVLKNSEGGFKFKNSIVEALIDIVSFVPQSKELALENLCDFIEDCEFNEILVRILHLLGKEGPSAPNPSLYVRHIYNRVVLENSIIRSAAVVALSKFALTKNDPTLYESIISLLKRIANDKDDEVRDRATIALEFIDSARNKDDVIAQNLIESKYFYDIPSLESKLSSYISSNTDSFATAFDVNQVRKFTEDEMKAINLKRKQEQIFNQKSETTLDTTPEAESVPEKRADANSFAGPNLDDHQEDLLATKYADELLSIEQIKPFGQLVNSSRAISLTEPEAEFVVRGVKHLFKDNVVLQFNITNTLTDIALDNVSVVCTPEISDEAELEELFTLQVDRLLPSEEAACYVAFKKLDEIVMEGFLNNLTFTTKEINPDTNEPFDGDEGFQDEYEIDSIFLNAGDYVKSSFTGNFSATFDELPCEEVAVFNIQEDLSIQEVVDKIILNSSCLPVESTQFAPSDSNSHTLKLFGKSALTGSKVALQIKMIKSSKGLALKVHGKGEDSLLCSDLVNGLMQ
medrep (log2 median colony size normalized to plate background, PCA score): 2.55
Ratio (SH3-deleted/WT medrep): 1.797

B6: YJL151C (protein, UniProt P14359 1-133, looked up)
Protein SNA3: MDRDHINDHDHRMSYSINKDDLLLMVLAVFIPPVAVWKRKGMFNRDTLLNLLLFLLLFFPAIIHACYVVYETSSERSYDLSRRHATAPAVDRDLEAHPAEESQAQPPAYDEDDEAGADVPLMDNKQQLSSGRT
medrep (log2 median colony size normalized to plate background, PCA score): 1.425
Ratio (SH3-deleted/WT medrep): 2.5
